The values below come from article PMC4463457.

B1: VSV-SNAP-hD3 (VSV- and SNAP-tagged human dopamine D3 receptor) [modified: SNAP tag covalently labelled with SNAP-Lumi4-Tb or SNAP-Red; SNAP tag covalently labelled with SNAP-Lumi4-Tb or SNAP-Red] [human] / … (parent)
chain: MASLSQLSGHLNYTCGAENSTGASQARPHAYYALSYCALILAIVFGNGLVCMAVLKERALQTTTNYLVVSLAVADLLVATLVMPWVVYLEVTGGVWNFSRICCDVFVTLDVMMCTASILNLCAISIDRYTAVVMPVHYQHGTGQSSCRRVALMITAVWVLAFAVSCPLLFGFNTTGDPTVCSISNPDFVIYSSVVSFYLPFGVTVLVYARIYVVLKQRRRKRILTRQNSQCNSVRPGFPQQTLSPDPAHLELKRYYSICQDTALGGPGFQERGGELKREEKTRNSLSPTIAPKLSLEVRKLSNGRLSTSLKLGPLQPRGVPLREKKATQMVAIVLGAFIVCWLPFFLTHVLNTHCQTCHVSPELYSATTWLGYVNSALNPVIYTTFNIEFRKAFLKILSC

The test covers variants of B1. The test can be described thus: htrFRET. The following applies: with itself; HEK293T cells transfected with increasing amounts of construct; read off a plot.
For chain 1 Y31A Y32A L34A S35A, the ratio to parent was found to be 1. On to chain 1 F394A L395A K396A, for which the ratio to parent came to 0.5. Consider chain 1 R210A Y212A V213A K216A, for which the ratio to parent worked out at 0.76. Then chain 1 D187A I190A V194A L199A, with 0.89.
